Key:
[1] = format: biochemical; conditions: for specific enzyme activity, bensulfuron-methyl / specific enzyme activity, chlorimuron-ethyl / specific enzyme activity, metsulfuron-methyl / specific enzyme activity, thifensulfuron-methyl / specific enzyme activity, tribenuron-methyl: 0.2 μg enzyme, 0.2 mM substrate, pH 7.0, 30° C., 20 min
Description: (§1) Each reaction was timed beginning with the addition of reactive enzyme, and was terminated with 1 mL of dichloromethane. The organic phase after delamination was dehydrated with anhydrous sodium sulfate.
(§2) The above dehydrated reaction solution was blown dry with nitrogen and filtered by adding 1 mL of methanol, and 20 μL of the filtrate was subjected to liquid chromatography-mass spectrometry (LC-MS). High performance liquid chromatography (HPLC) conditions were as follows: mobile phase being methanol:water (80:20, V/V), Zorbax XDB-C18 chromatographic column (3.5 μm, 2.1×50 mm, Agilent, USA), column temperature being room temperature, UV detector, with a detection wavelength of 255 nm, a sample injection volume of 20 μL, and a flow rate of 0.25 mL/min. The primary ion mass spectrometry conditions were as follows: ion detection mode being multi-reactive ion detection; ion polarity being negative ion; ionization mode being electrospray ionization; a capillary voltage of 4000 volts; a dry gas temperature of 330° C., a flow rate of 10 L/min, an atomizing gas pressure of 35 psi, a collision voltage of 135 volts; and a mass scan range of 300-500 m/z. The secondary ion mass spectrometry conditions were as follows: a collision voltage of 90 volts; a mass scanning range of 30-400 m/z, and other conditions being the same as those of the primary ion mass spectrometry. It was identified by LC-MS that the metabolite of thifensulfuron-methyl was thiophene sulfonic acid, and the metabolite of metsulfuron-methyl, chlorimuron-ethyl, bensulfuron-methyl, sulfometuron-methyl or tribenuron-methyl was its corresponding sulfonic acid. The amount of the generated thiophene sulfonic acid (metabolite) was detected using high performance liquid chromatography (HPLC).

[2] = Degradation of sulfometuron-methyl by purified herbicide tolerant proteins (enzymatic activity, HPLC); format: biochemical; conditions: 0.2 μg enzyme, 0.2 mM substrate, pH 7.0, 30° C., 20 min
Description: as §1, §2

B1: ALT04M1: herbicide tolerant protein, SEQ ID NO: 55; ALT04 with glycine to alanine at position 131 (protein)
chain: MSKRKVVLAEQGSFYIGGRTVTGPGKFDPSKPVIPYSNEGATFYINQMYVNFQAPVRPRGLPLVFWHGGGLTGHIWESTPDGRPGFQTLFVQDRHTVYTIDQPGRGRGNIPTFNGPFGQLEEESIVNTVTANSSKEGAWVRDRLGPAPGQFFENSQFPRGYEDNYFKEMGFSPSISSDEIVDAVVKLVTHIGPCVLVTHSASGVLGMRVATHAKNVRGIVAYEPATSIFPKGKVPEIPPLADKKSQIFPPFEIQESYFKKLAKIPIQFVFGDNIPKNPKSAYWFLDWWRVTRYAHSLSLEAINKLGGQASLLDLPTAGLRGNTHFPFTDRNNVQVASLLSDFLGKHGLDQ
modifications: the amino acid sequence of the ALT04M1
- efficiency of degrading bensulfuron-methyl, fold of ALT04 [1]: 1.9 fold
- efficiency of degrading thifensulfuron-methyl, fold of ALT04 [1]: 2.8 fold
- specific enzyme activity, bensulfuron-methyl [1]: 3.5 µmol/min/mg
- specific enzyme activity, chlorimuron-ethyl [1]: 9.4 µmol/min/mg
- specific enzyme activity, metsulfuron-methyl [1]: 2.0 µmol/min/mg
- specific enzyme activity, thifensulfuron-methyl [1]: 80.9 µmol/min/mg
- specific enzyme activity, tribenuron-methyl [1]: 2.8 µmol/min/mg
- specific enzyme activity, sulfometuron-methyl [2]: 4.9 µmol/min/mg

B2: ALT04M2: herbicide tolerant protein, SEQ ID NO: 59; ALT04 with serine to valine at position 133 (protein)
chain: MSKRKVVLAEQGSFYIGGRTVTGPGKFDPSKPVIPYSNEGATFYINQMYVNFQAPVRPRGLPLVFWHGGGLTGHIWESTPDGRPGFQTLFVQDRHTVYTIDQPGRGRGNIPTFNGPFGQLEEESIVNTVTGNVSKEGAWVRDRLGPAPGQFFENSQFPRGYEDNYFKEMGFSPSISSDEIVDAVVKLVTHIGPCVLVTHSASGVLGMRVATHAKNVRGIVAYEPATSIFPKGKVPEIPPLADKKSQIFPPFEIQESYFKKLAKIPIQFVFGDNIPKNPKSAYWFLDWWRVTRYAHSLSLEAINKLGGQASLLDLPTAGLRGNTHFPFTDRNNVQVASLLSDFLGKHGLDQ
modifications: the amino acid sequence of the ALT04M2
- efficiency of degrading bensulfuron-methyl, fold of ALT04 [1]: 1.2 fold
- efficiency of degrading thifensulfuron-methyl, fold of ALT04 [1]: 3.3 fold
- specific enzyme activity, bensulfuron-methyl [1]: 2.2 µmol/min/mg
- specific enzyme activity, chlorimuron-ethyl [1]: 8.1 µmol/min/mg
- specific enzyme activity, metsulfuron-methyl [1]: 1.1 µmol/min/mg
- specific enzyme activity, thifensulfuron-methyl [1]: 95.4 µmol/min/mg
- specific enzyme activity, tribenuron-methyl [1]: 9.7 µmol/min/mg
- specific enzyme activity, sulfometuron-methyl [2]: 3.2 µmol/min/mg

B3: ALT02: ALT02 protein (369 amino acids), SEQ ID NO: 19; unmutated herbicide tolerant protein (protein)
chain: METDNVELAQSKRKVVLAEQGSFYIGGRTVTGPGKFDPSKPVIPYSNEGATFYINQMYVNFQAPVRPRGLPLVFWHGGGLTGHIWESTPDGRPGFQTLFVQDRHTVYTIDQPGRGRGNIPTFNGPFGQLEEESIVNTVTGNSSKEGAWVRDRLGPAPGQFFENSQFPRGYEDNYFKEMGFSPSISSDEIVDAVVKLVTHIGPCVLVTHSASGVLGMRVATHAKNVRGIVAYEPATSIFPKGKVPEIPPLADKKSQIFPPFEIQESYFKKLAKIPIQFVFGDNIPKNPKSAYWFLDWWRVTRYAHSLSLEAINKLGGQASLLDLPTAGLRGNTHFPFTDRNNVQVASLLSDFLGKHGLDQNESKLAAALE
modifications: the amino acid sequence of ALT02
- specific enzyme activity, bensulfuron-methyl [1]: 1.8 µmol/min/mg
- specific enzyme activity, chlorimuron-ethyl [1]: 2.8 µmol/min/mg
- specific enzyme activity, metsulfuron-methyl [1]: 2.1 µmol/min/mg
- specific enzyme activity, thifensulfuron-methyl [1]: 28.8 µmol/min/mg
- specific enzyme activity, tribenuron-methyl [1]: 1.9 µmol/min/mg
- specific enzyme activity, sulfometuron-methyl [2]: 2.0 µmol/min/mg

B4: ALT03M1: herbicide tolerant protein, SEQ ID NO: 39; ALT03 with glycine to alanine at position 140 (protein)
chain: METDNVELAQSKRKVVLAEQGSFYIGGRTVTGPGKFDPSKPVIPYSNEGATFYINQMYVNFQAPVRPRGLPLVFWHGGGLTGHIWESTPDGRPGFQTLFVQDRHTVYTIDQPGRGRGNIPTFNGPFGQLEEESIVNTVTANSSKEGAWVRDRLGPAPGQFFENSQFPRGYEDNYFKEMGFSPSISSDEIVDAVVKLVTHIGPCVLVTHSASGVLGMRVATHAKNVRGIVAYEPATSIFPKGKVPEIPPLADKKSQIFPPFEIQESYFKKLAKIPIQFVFGDNIPKNPKSAYWFLDWWRVTRYAHSLSLEAINKLGGQASLLDLPTAGLRGNTHFPFTDRNNVQVASLLSDFLGKHGLDQNES
modifications: the amino acid sequence of the ALT03M1
- efficiency of degrading bensulfuron-methyl, fold of ALT03 [1]: 2.1 fold
- efficiency of degrading thifensulfuron-methyl, fold of ALT03 [1]: 3.0 fold
- specific enzyme activity, bensulfuron-methyl [1]: 3.7 µmol/min/mg
- specific enzyme activity, chlorimuron-ethyl [1]: 9.9 µmol/min/mg
- specific enzyme activity, metsulfuron-methyl [1]: 2.1 µmol/min/mg
- specific enzyme activity, thifensulfuron-methyl [1]: 85.4 µmol/min/mg
- specific enzyme activity, tribenuron-methyl [1]: 2.9 µmol/min/mg
- specific enzyme activity, sulfometuron-methyl [2]: 5.1 µmol/min/mg

B5: ALT03M3: herbicide tolerant protein, SEQ ID NO: 47; ALT03 mutated at positions 44, 45, 140, 142 and 146 (protein)
chain: METDNVELAQSKRKVVLAEQGSFYIGGRTVTGPGKFDPSKPVIRASNEGATFYINQMYVNFQAPVRPRGLPLVFWHGGGLTGHIWESTPDGRPGFQTLFVQDRHTVYTIDQPGRGRGNIPTFNGPFGQLEEESIVNTVTANVSKERAWVRDRLGPAPGQFFENSQFPRGYEDNYFKEMGFSPSISSDEIVDAVVKLVTHIGPCVLVTHSASGVLGMRVATHAKNVRGIVAYEPATSIFPKGKVPEIPPLADKKSQIFPPFEIQESYFKKLAKIPIQFVFGDNIPKNPKSAYWFLDWWRVTRYAHSLSLEAINKLGGQASLLDLPTAGLRGNTHFPFTDRNNVQVASLLSDFLGKHGLDQNES
modifications: The amino acid sequence of the ALT03M3
- efficiency of degrading chlorimuron-ethyl, fold of ALT03 [1]: 13.0 fold
- efficiency of degrading chlorimuron-ethyl, fold of ALT04 [1]: 12.4 fold
- efficiency of degrading metsulfuron-methyl, fold of ALT03 [1]: 1.9 fold
- efficiency of degrading metsulfuron-methyl, fold of ALT04 [1]: 1.8 fold
- specific enzyme activity, bensulfuron-methyl [1]: 0.6 µmol/min/mg
- specific enzyme activity, chlorimuron-ethyl [1]: 36.5 µmol/min/mg
- specific enzyme activity, metsulfuron-methyl [1]: 4.0 µmol/min/mg
- specific enzyme activity, thifensulfuron-methyl [1]: 16.9 µmol/min/mg
- specific enzyme activity, tribenuron-methyl [1]: 3.1 µmol/min/mg
- specific enzyme activity, sulfometuron-methyl [2]: 1.0 µmol/min/mg

B6: ALT03M2: herbicide tolerant protein, SEQ ID NO: 43; ALT03 with serine to valine at position 142 (protein)
chain: METDNVELAQSKRKVVLAEQGSFYIGGRTVTGPGKFDPSKPVIPYSNEGATFYINQMYVNFQAPVRPRGLPLVFWHGGGLTGHIWESTPDGRPGFQTLFVQDRHTVYTIDQPGRGRGNIPTFNGPFGQLEEESIVNTVTGNVSKEGAWVRDRLGPAPGQFFENSQFPRGYEDNYFKEMGFSPSISSDEIVDAVVKLVTHIGPCVLVTHSASGVLGMRVATHAKNVRGIVAYEPATSIFPKGKVPEIPPLADKKSQIFPPFEIQESYFKKLAKIPIQFVFGDNIPKNPKSAYWFLDWWRVTRYAHSLSLEAINKLGGQASLLDLPTAGLRGNTHFPFTDRNNVQVASLLSDFLGKHGLDQNES
modifications: the amino acid sequence of the ALT03M2
- efficiency of degrading bensulfuron-methyl, fold of ALT03 [1]: 1.3 fold
- efficiency of degrading thifensulfuron-methyl, fold of ALT03 [1]: 3.5 fold
- specific enzyme activity, bensulfuron-methyl [1]: 2.3 µmol/min/mg
- specific enzyme activity, chlorimuron-ethyl [1]: 8.6 µmol/min/mg
- specific enzyme activity, metsulfuron-methyl [1]: 1.1 µmol/min/mg
- specific enzyme activity, thifensulfuron-methyl [1]: 100.7 µmol/min/mg
- specific enzyme activity, tribenuron-methyl [1]: 10.3 µmol/min/mg
- specific enzyme activity, sulfometuron-methyl [2]: 3.3 µmol/min/mg

Source: patent US12385058B2, “Herbicide tolerance protein, encoding gene thereof and use thereof” (Beijing Dabeinong Biotechnology Co., Ltd., priority 2018, dated 2025)
